{
  "source": "IntAct's records for PubMed 19850040",
  "parents": {"B1": {"name": "Post-transcriptional regulator MTA (Human herpesvirus 8), Q2HR75 (parent)", "chain": "MVQAMIDMDIMKGILEDSVSSSEFDESRDDETDAPTLEDEQLSEPAEPPADERIRGTQSAQGIPPPLGRIPKKSQGRSQLRSEIQFCSPLSRPRSPSPVNRYGKKIKFGTAGQNTRPPPEKRPRRRPRDRLQYGRTTRGGQCRAAPKRATRRPQVNCQRQDDDVRQGVSDAVKKLRLPASMIIDGESPRFDDSIIPRHHGACFNVFIPAPPSHVPEVFTDRDITALIRAGGKDDELINKKISAKKIDHLHRQMLSFVTSRHNQAYWVSCRRETAAAGGLQTLGAFVEEQMTWAQTVVRHGGWFDEKDIDIILDTAIFVCNAFVTRFRLLHLSCVFDKQSELALIKQVAYLVAMGNRLVEACNLLGEVKLNFRGGLLLAFVLTIPGMQSRRSISARGQELFRTLLEYYRPGDVMGLLNVIVMEHHSLCRNSECAAATRAAMGSAKFNKGLFFYPLS"}},
  "data": [
    {"variants_of": "B1", "settings": "with thoc4_human ALYREF", "values": [
      {"variant": "K104N", "effect of a mutation on the interaction": "disrupting interaction"},
      {"variant": "K105N", "effect of a mutation on the interaction": "disrupting interaction"},
      {"variant": "R101S", "effect of a mutation on the interaction": "disrupting interaction"}
    ]}
  ]
}
